Test results taken from patent US20160009819A1 (SHIONOGI, published 2016).
Residue numbers refer to the chain shown, from its start. Each block holds one binder with its values, some of them ahead of it.

Columns and labels:
mouse EL with C2 tag = target: T1, mouse EL with C2 tag (mouse, UniProt Q9WVG5 21-500); experiment: ELISA: antibody captured on anti-mouse IgG-Fc plate, C2-tagged EL heparin extract added, anti-C2-tag detection, A450 (Example 8)
T1 construct: Heparin extract of transfected HEK293F cells; also called mouse E1; not shown: C2 tag
T1 sequence (looked up): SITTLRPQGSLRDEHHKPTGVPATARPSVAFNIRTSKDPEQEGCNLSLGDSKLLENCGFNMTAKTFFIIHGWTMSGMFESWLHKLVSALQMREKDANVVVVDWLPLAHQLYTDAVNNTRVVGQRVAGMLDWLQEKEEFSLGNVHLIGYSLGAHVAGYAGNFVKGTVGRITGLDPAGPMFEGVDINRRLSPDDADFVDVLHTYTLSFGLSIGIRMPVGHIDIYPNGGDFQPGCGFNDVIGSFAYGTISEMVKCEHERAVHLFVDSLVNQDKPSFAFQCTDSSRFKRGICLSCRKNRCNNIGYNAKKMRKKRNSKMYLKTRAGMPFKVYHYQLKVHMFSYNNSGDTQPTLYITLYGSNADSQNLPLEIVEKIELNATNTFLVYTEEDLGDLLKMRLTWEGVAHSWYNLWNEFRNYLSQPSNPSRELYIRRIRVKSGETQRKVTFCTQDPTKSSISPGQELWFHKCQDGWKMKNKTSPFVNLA
Method: (§1) Assay buffer containing 15 μl of anti-EL antibody was added to anti-mouse IgG-Fc antibody-immobilized microtiter plate, and incubated for 2 hr. […] After washing the wells three times with 90 μL, of washing buffer, 15 μl of assay buffer containing biotin-labeled anti-C2-tag antibody and HRP-labeled Streptavidin were added to the wells and incubated at room temperature for 1 hr. After washing the wells three times with 90 μL of washing buffer, 15 μL of TMB+-Substrate-Chromogen (DAKO) was added and incubated at room temperature for 30 min and then 15 μL of 0.05 M H2SO₄ was added and absorbance at 450 nm was measured (FIG. 3A-3K).

[1] = target: T2, human [1-157]-mouse chimeric EL with C2 tag (human; mouse, UniProt Q9WVG5 158-500); experiment: as above
T2 construct: Heparin extract of transfected HEK293F cells; shifted by one: 4); Built here from the name of the chimera; not shown: C2 tag
T2 sequence: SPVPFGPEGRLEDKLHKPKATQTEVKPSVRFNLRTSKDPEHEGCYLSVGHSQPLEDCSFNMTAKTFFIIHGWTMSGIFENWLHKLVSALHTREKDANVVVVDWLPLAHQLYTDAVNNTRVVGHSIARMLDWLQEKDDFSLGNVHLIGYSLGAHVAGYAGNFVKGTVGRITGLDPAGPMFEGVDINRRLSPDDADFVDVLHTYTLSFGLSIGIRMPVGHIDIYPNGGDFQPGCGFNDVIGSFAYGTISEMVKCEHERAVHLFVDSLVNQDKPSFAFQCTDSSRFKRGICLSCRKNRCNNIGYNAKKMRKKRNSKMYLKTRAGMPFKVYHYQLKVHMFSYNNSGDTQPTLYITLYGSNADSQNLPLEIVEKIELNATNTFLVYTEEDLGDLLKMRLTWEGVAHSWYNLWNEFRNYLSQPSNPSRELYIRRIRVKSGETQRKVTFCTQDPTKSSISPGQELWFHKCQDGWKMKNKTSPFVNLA
Method: as §1

[2] = target: T3, baboon EL (vascular endothelial lipase) with C2 tag (baboon, UniProt Q9Y5X9 21-500 (human entry), limits assumed); experiment: SPR (Biacore), EL captured by anti-C2-tag antibody on CM5 chip, antibody injected, bivalent fit
T3 construct: also called baboon EL-C2 tag
T3 chain: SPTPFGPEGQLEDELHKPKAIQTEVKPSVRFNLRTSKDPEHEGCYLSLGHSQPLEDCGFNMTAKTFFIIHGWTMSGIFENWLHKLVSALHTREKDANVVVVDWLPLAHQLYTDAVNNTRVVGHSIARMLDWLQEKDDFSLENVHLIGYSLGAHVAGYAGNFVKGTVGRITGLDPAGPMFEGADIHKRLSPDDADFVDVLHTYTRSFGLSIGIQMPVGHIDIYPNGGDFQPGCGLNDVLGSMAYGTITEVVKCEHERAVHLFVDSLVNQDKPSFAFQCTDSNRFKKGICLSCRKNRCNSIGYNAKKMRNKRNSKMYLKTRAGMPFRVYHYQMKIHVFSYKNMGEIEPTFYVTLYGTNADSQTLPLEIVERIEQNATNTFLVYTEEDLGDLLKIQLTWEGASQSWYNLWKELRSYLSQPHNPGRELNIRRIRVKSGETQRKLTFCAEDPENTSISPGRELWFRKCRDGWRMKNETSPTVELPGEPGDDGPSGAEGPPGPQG
Method: (§2) The binding affinities of anti-EL antibodies were measured using Biacore. […] Then, anti-EL antibodies were added and the binding affinities were calculated by bivalent fitting of BIAevaluation software.

[3] = target: T3, baboon EL (vascular endothelial lipase) …; experiment: ELISA: antibody captured on anti-mouse IgG-Fc plate, C2-tagged EL heparin extract added, anti-C2-tag detection, A450 (Example 8)
Method: as §1

[4] = target: T4, human [1-305]-mouse chimeric EL with C2 tag (human; mouse, UniProt Q9WVG5 306-500); experiment: SPR (Biacore), EL captured by anti-C2-tag antibody on CM5 chip, antibody injected, bivalent fit
T4 construct: Heparin extract of transfected HEK293F cells; probably 97; Built here from the name of the chimera; not shown: C2 tag
T4 sequence: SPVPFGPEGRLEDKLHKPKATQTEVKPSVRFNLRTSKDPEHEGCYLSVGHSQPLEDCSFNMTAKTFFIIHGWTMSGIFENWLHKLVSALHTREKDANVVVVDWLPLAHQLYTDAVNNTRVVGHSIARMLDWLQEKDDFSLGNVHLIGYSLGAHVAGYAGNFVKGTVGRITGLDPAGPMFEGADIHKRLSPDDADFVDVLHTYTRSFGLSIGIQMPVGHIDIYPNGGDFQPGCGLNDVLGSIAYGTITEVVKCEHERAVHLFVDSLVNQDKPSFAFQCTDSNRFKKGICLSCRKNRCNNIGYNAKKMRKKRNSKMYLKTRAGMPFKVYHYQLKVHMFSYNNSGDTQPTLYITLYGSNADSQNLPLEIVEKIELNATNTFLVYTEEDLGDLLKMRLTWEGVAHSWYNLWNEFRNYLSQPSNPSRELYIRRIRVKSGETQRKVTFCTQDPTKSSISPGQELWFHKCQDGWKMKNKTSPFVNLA
Method: as §2

binding result (mouse EL with C2 tag): no binding (tested: about 300 ng/mL)
B1: 55A1 antibody (antibody, V domains shown)
VH: QIHLVQSGPELKKPGETVKISCKASGYTFTNYGMNWVKQAPGKGLKWMGWINTYSGVPTYAGDFKGRFAFSLETSASTAYLQINNLKNEDTATYFCARRGYYGRRYFDVWGTGTTVTVSS
VL: DIVLTQSPASLAVSLGQRATISCKASQSVDYDVDSYMHWYQQKPGQPPKLLIYAASNLASGIPARFSGGGSGTDFTLNIHPVEEEDVATYYCQQTIEDPPTFGGGTKLEIK
notes: Mouse hybridoma antibody, IgG2a

binding result (mouse EL with C2 tag): no binding (tested: about 300 ng/mL)
binding result [1]: no binding (tested: about 300 ng/mL)
kon [2]: 67000 M⁻¹ s⁻¹
B2: 19E7 antibody (antibody, V domains shown)
VH: QVQLQQPGSVLVRPGASVKLSCKASGYTFTTYWMHWVKQRPGQGLEWIGEIHPYSGNNNNNEKFKGKATLTVDTSSSTAYVDLSRLTSEDSAVYYCARYDSNYVFAYWGQGTLVTVSA
VL: QIVLTQSPAIMSASPGEGVTITCSASSSVSYMHWFQQKPGTSPKLWIYSTSNLASGVPARFSGSGSGTSYSLTISRMEAEDAATYYCQQRDSYLTFGSGTKLEVK
notes: as for B1

binding result (mouse EL with C2 tag): no binding (tested: about 300 ng/mL)
B3: 13B3 antibody (antibody, V domains shown)
VH: EVQLQQSGPELLKPGASVKISCKASGYTFTEYTMHWVKQSHGKSLEWIGSINPYYGGTSYNEKFKDKATLTVDKSSNTAYMEFRSLTSEDCAVYYCARYGNYVGYFDYWGQGTTLTVSS
VL: ENVLTQSPAIMSASLGEKVTMSCRASSSVHYMYWYQQKSDASPKLWIYYTSNLAPGVPDRFSGSGSGNSYSLTISSMEGEDAATYYCQQFTSSPYTFGGGTKLEIK
notes: as for B1

binding result (mouse EL with C2 tag): no binding (tested: about 300 ng/mL)
B4: 16B3 antibody (antibody, V domains shown)
VH: DVKLVESGGGLVQPGGSLKLSCTASGFTFSGYTMSWVRQTPEKRLELVAEISFARDRAFYPDTVKGRFTISRDNAKNTLYLQMSSLKSEDTAMYYCTRLGGRNHDYWYFDVWGTGTTVTVSS
VL: DIVLTQSPTSLAVSPGQRATISCRASESVEYYGTSLMQWYQQKPGQRPQLLIYAASNVESGVPARFSGSGSGTDFSLNIHPVEEDDIAVYFCQQSWKVPFTFGSGTKLEIK
notes: as for B1

EC50 (read off the curve) [3]: ~10 ng/mL
kon [4]: 950000 M⁻¹ s⁻¹
B5: 16E7 antibody (antibody, V domains shown)
VH: B4 VH with D1E, T23A, G31S, A54T, D56S, T97A, R102N, H104Y
VL: B4 VL with P15L, Q49K, V89M
notes: Mouse hybridoma antibody, IgG1

binding result (mouse EL with C2 tag): no binding (tested: about 300 ng/mL)
B6: 53A11 antibody (antibody, V domains shown)
VH: EVQLQQSGPELLKPGASVKISCKASGYTFTDYTMHWVKQSHGKSLEWIGGINPYYGGTTYNEKFKDKATLTVDKSSSTAYMELRSLTSEDSAVYYCAKGDYYGGSYNYWGQGTTLTVSS
VL: DIVLTQSLATLSVTPGDSVSLSCRASQDISNSLHWYQQKSHESPRLLIKYASQSISGIPSRFSGSGSGTDFTLSINSVETEDFGMYFCQQSNSWPYTFGGGTKLEIK
notes: as for B1

binding result (mouse EL with C2 tag): no binding (tested: about 300 ng/mL)
B7: 14A1 antibody (antibody, V domains shown)
VH: QIQLVQSGPELKKPGETVKISCKASGYTFTNYGMNWVKQAPGKGLKWMGWINTYSGVPTYADDFKGRFAFSLETSASTAYLQINNFKNEDTATYFCARFSYYGRHYFDYWGQGTALTASS
VL: DIVLTQSPASLAVSLGQRATISCKASQSVDYDGDSYMNWYQQKPGQPPKLLIYAASNLKSGIPARFSGSGSGTDFTLNIHPVEEEDAATYYCQQTTDDPPWTFGGGTKLEIK
notes: as for B5

binding result (mouse EL with C2 tag): no binding (tested: about 300 ng/mL)
B8: 2D5 antibody (antibody, V domains shown)
VH: B7 VH with A61T, Y80F, F86L, A115T, A118V
VL: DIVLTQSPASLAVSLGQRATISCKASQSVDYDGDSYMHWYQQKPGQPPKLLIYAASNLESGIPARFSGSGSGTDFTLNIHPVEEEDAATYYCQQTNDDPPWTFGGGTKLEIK
notes: as for B1

binding result (mouse EL with C2 tag): no binding (tested: about 300 ng/mL)
B9: 7D4 antibody (antibody, V domains shown)
VH: B7 VH with G44D, F86L, A115T, A118V
VL: B7 VL with K49Q, K59G, Q93H, T95S
notes: as for B5

binding result (mouse EL with C2 tag): no binding (tested: about 300 ng/mL)
B10: 23H8 antibody (antibody, V domains shown)
VH: EVQLQQSGPELLKPGASVKISCKASGYTFTDNTIHWVKQSHGKSLEWIGHINPYYGGTNNNEKFKDKATLTVDKSSSTAYMELRSLTSEDSAIYYCARKGIYYSSPFDYWGQGTTLTVSS
VL: DIQMTQTTSSLSASLGDRVTISCRASQDINNYLNWYQQKPDGTVKLLISYTSKLHSGVPSRFSGSGSGTDYSLTISNLEREDFATYFCQQGNTLPFTFGSGTNLEIK
notes: as for B1
